One assay concerns the target LC3B (Homo sapiens) (UniProt Q9GZQ8). Particulars: cited from earlier work.
In assay [1] the target is LC3B fused with mCherry (microtubule-associated protein light chain 3) (human) (UniProt Q9GZQ8). The assay is described as follows: ELISA; plate coated with 5 μg/ml mCherry-LC3B in PBS, blocked with BSA; serial dilutions of TPPP/p25 forms or SYN; detected by TPPP/p25 or SYN antibodies; apparent Kd from hyperbola with a single binding site. Background: ELISA stands for enzyme-linked immunosorbent assay.

Turning to SQSTM1/p62 (from UniProt Q13501), the Kd with LC3B (Homo sapiens) is 1500 nM. For the substance “Tubulin Polymerization Promoting Protein (TPPP/p25), human recombinant with hexaHis tag (from UniProt O94811 1-219) (natural protein; other documents disagree on this pair)”, in assay [1], the Kd was found to be 21.5 nM.
